In this data set the test system is MS2 coat protein. Put plainly: apparent KD of MS2 coat protein; designed switch direction (-1 OFF switch, 1 ON switch): -1; higher = weaker reporter binding. Summed up:
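Stalled E. coli RNA polymerase transcribed designed RNA switches on Illumina chips, which were then titrated with SNAP-549-labelled MS2 coat protein, doubling from 0.7 or 1.5 nM to 3 µM. Steps lasted from 0.8–1.5 h at the lowest concentration to 10–20 min at the highest. The apparent KD is each design's median over clusters of curve-fitted normalised fluorescence.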

Where [1] appears, read: Eterna round: R95, input ligand: FMN 200 uM.
Where [2] appears, read: Eterna round: R95, input ligand: microRNA oligo, concentration not stated.
The mark [3] stands for this setting: Eterna round: R95, input ligand: none.
Where [4] appears, read: input ligand: microRNA oligo, concentration not stated.

Consider 24 sequences from the supplement of paper PMC9170038.

As for “AUAUCGUGAGGAUAUCCAAUAUAUGACAUGAGGAUCACCCAUGUUUCCACUCGUACCUCCGGAGAAGGCACAGUUU [Ex5 #71] (Eterna round: R97, puzzle: Exclusion 5)”, the “apparent KD of MS2 coat protein” value by setting is: (input ligand: FMN 200 uM) 22.4 nM; (input ligand: none) 32.2 nM.
As to “GGUGCUGGCGCGUCGGUGUUGGUGCAAUAAGCUUGUGAAACAUGAGGAUCACCCAUGUCCUCAUGGGCUCGUCUUGU [salish99_TOv2_r2_089] (puzzle: Sensor v3, turn-off variant 2)”, the “apparent KD of MS2 coat protein” value by setting is: under setting [1], 123 nM; under setting [2], 13 nM; under setting [3], 138 nM.
Turning to “UUGUUGUGUGUAGGAUAUGCGUGUUAUUAUUAUGCAGAAGGACAUGAGGAUCACCCAUGUGUAUUAUUAUUAUAUAUUAUAUAU [Title] (Eterna round: R96, puzzle: Exclusion NG 1)”, the “apparent KD of MS2 coat protein” value was 23.8 nM (input ligand: FMN 200 uM), 17.1 nM under setting [4] and 23.5 nM (input ligand: none).
In the case of “UUUACAAGCUUUUGAUCCCACAUGAGGAUCACCCAUGUUGCUGCCGUGAGGUAGCAUUUAACAAAUGCUCGUCUUAU [JL TOV1 3.54] (Eterna round: R97, puzzle: Sensor, turn-off variant 1)”, the “apparent KD of MS2 coat protein” value was 404 nM (input ligand: FMN 200 uM) and 1380 nM (input ligand: none).
As for “GCUGGUCGAGGAUAUGCAAUCGUGCUUCGGCACGUAAGGUCACAUGAGGAUCACCCAUGUAGAAGGCGACCAGC [E2/4-A1] (Eterna round: R97, puzzle: Exclusion 2)”, the “apparent KD of MS2 coat protein” value amounted to 32.5 nM (input ligand: FMN 200 uM) and 19.2 nM (input ligand: none).
For “AAACGGCAGGGAGGAUAUGCCUACCUGGGUCGUCUUCAAACAUGAGGAUCACCCAUGUAGUCGACGCAGAAGGCCCUCAAAGCC [Ontiis] (Eterna round: R96, puzzle: Exclusion NG 2)”, the “apparent KD of MS2 coat protein” value reads like this: (input ligand: FMN 200 uM) 38.7 nM; under setting [4], 8.22 nM; (input ligand: none) 12.7 nM.
“ACAUGUCAUCGAGGAUAUUGGACACAUGAGGAUCACCCAUGUACUCGGAGGCUCUACCAUGAGUUCGAGAAGGCGAUGUACAUG [Ex NG2 #76] (Eterna round: R96, puzzle: Exclusion NG 2)”: the “apparent KD of MS2 coat protein” value runs as follows: (input ligand: FMN 200 uM) 651 nM; under setting [4], 316 nM; (input ligand: none) 365 nM.
Regarding “CUGGUCCGAGGAUAUAUGAUGUGAAACAUGAGGAUCACCCAUGUAAUAUUAUGGAUGGAAAUAGAAGGCGGACUAG [Mat - Exclusion 5 - JL mod - D36] (puzzle: Exclusion 5)”, the “apparent KD of MS2 coat protein” value by setting is: under setting [1], 63.5 nM; under setting [2], 49.7 nM; under setting [3], 65.2 nM.
As to “AAGUAUAGAGGAUAUAGUAGUUACAACAUGAGGAUCACCCAUGUUCUUCAUAACGUAGUUCUAGAAGGCUGAUAAA [EX-5 Malc#28] (puzzle: Exclusion 5)”, the “apparent KD of MS2 coat protein” value under setting [2] was determined as 172 nM.
For “AAUCAGCGAGGAUAUACAGAUUCUGGGUGCGGCUCGGCGAGACAUGAGGAUCACCCAUGUAGAAGGUGCUAGCC [Teoredre] (puzzle: Exclusion 2)”, the “apparent KD of MS2 coat protein” value under setting [2] was 29.2 nM.
Consider “GUUGUUUAUGUAGGAUAUGCCUGGCGUGCCUUUGCAGAAGGACAUGAGGAUCACCCAUGUAACAUGAGGCUCACCCAUGUCGCU [salish99_ExNG1_r04_108] (Eterna round: R96, puzzle: Exclusion NG 1)”, for which the “apparent KD of MS2 coat protein” value was 397 nM (input ligand: FMN 200 uM), 159 nM under setting [4] and 296 nM (input ligand: none).
“AACAUGUGAGGAUAUUUAAGAAAAGAAAAGAAAGAAAAGAAAAAGAAGGCACAUGAGGAUCACCCAUGUAAGAA [EteRNA is fun!] (Eterna round: R96, puzzle: Exclusion 4)”: the “apparent KD of MS2 coat protein” value under setting [4] came to 19 nM.
With “UUCGUACAGCAAAGCUGUACGCGUACAUGAGGAUCACCCAUGUAGGAUAUGGUAGGCAAAGCUUACUAGAAGGAUAGAGUGAUC [Mat - Exclusion NG 3 - Mod of JL - D76] (Eterna round: R96, puzzle: Exclusion NG 3)”, the “apparent KD of MS2 coat protein” value was 593 nM (input ligand: FMN 200 uM), 290 nM under setting [4] and 582 nM (input ligand: none).
On to “UAACAUGUCUGAGGAUAUCUGCACGUGUAGUGCAGAGAAGGCAGAACAUGAGGAUCACCCAUGUAGAUCAUUAAUUAAUUAAUU [ENG1/7-B3] (Eterna round: R96, puzzle: Exclusion NG 1)”, for which the “apparent KD of MS2 coat protein” value stood at 765 nM (input ligand: FMN 200 uM), 337 nM under setting [4] and 478 nM (input ligand: none).
Turning to “AUUGAUGUUGAGGAUAUGCUUUUAUUUAUAAUAGCAGAAGGCGAUACAUGAGGAUCACCCAUGUUCAUGGUAGU [JR_E6_Sub095] (puzzle: Exclusion 6)”, the “apparent KD of MS2 coat protein” value under setting [2] came out at 50.4 nM.
With “UGUAGAGUGGUAGGAUAUCCGUCUGUUUCAGUCGGAGAAGGGCCACAGUCACUGGGUCCUAAUAUCAUGGAGACCUGAUCUACU [pwkr exNG1 F6.14] (Eterna round: R96, puzzle: Exclusion NG 1)”, the “apparent KD of MS2 coat protein” value (input ligand: FMN 200 uM) came out at 599 nM, the “apparent KD of MS2 coat protein” value under setting [4] was 288 nM and the “apparent KD of MS2 coat protein” value (input ligand: none) is 383 nM.
Consider “UCGAGUGGUUAGGAUAUCAUUGGUGCAUAUCAUUGAGAAGGAACUACAUGAGGAUCACCCAUGUGGCAGUGAUA [Abezaso] (Eterna round: R96, puzzle: Exclusion 6)”, for which the “apparent KD of MS2 coat protein” value came out at 152 nM (input ligand: FMN 200 uM), 26.4 nM under setting [4] and 31.9 nM (input ligand: none).
Regarding “UUUUAACAUGAGGAUCACCCAUGUGAGGAUAUCGAAAUUUAUAUUUAUAUUUAUAAUACGAGAAGGCACAUUUU [JMF 94] (puzzle: Exclusion 1)”, under setting [2], the “apparent KD of MS2 coat protein” value was 82.3 nM.
With “GCCGUCAAUGUGAGGAUAUGCCUAUGGAUACGUAGGCAGAAGGCACAUGAGGAUCACCCAUGUCCAAAGACGGC [JL-BMX4-4.31 Eli mod] (Eterna round: R97, puzzle: Brourd's mod of Exclusion 4)”, the “apparent KD of MS2 coat protein” value reads like this: (input ligand: FMN 200 uM) 2170 nM; (input ligand: none) 200 nM.
As to “GAUGAGGUAGGAUAUACGAGAAGAUAGGGUAGAGAGAGAACACAUGAGGAUCACCCAUGUAGAAGGACCAGUAG [Mat - Exclusion 2 - Mod of my Tesla design - D74] (puzzle: Exclusion 2)”, the “apparent KD of MS2 coat protein” value was 48.9 nM under setting [1], 21.1 nM under setting [2] and 21.4 nM under setting [3].
In the case of “AUCAUGUAAGGAUAUCUUACAUGUGACUUCGGUCACUGUCAAGAGAAGGUACAUGAGGAUCACCCAUGUAUGAC [Ex4-3: 51] (puzzle: Exclusion 4)”, under setting [2], the “apparent KD of MS2 coat protein” value is 16.8 nM.
As for “CAUACACAUGAGGAUCACCCAUGUGAGGAUAUGCGUACGUUGUCCGUAGGCGACGUGCGCAGAAGGCGCGUGUU [JL-ex1-3.15 Eli mod] (puzzle: Exclusion 1)”, the “apparent KD of MS2 coat protein” value under setting [2] is 42.5 nM.
For “GCACGGUAAGUGAGGAUAUACCUCUGGAUACAGAGGUAGAAGGCACAUGAGGAUCACCCAUGUCCUAGCCGUGC [Fiskers BMX 4 - 88] (puzzle: Brourd's mod of Exclusion 4)”, under setting [2], the “apparent KD of MS2 coat protein” value was determined as 32.9 nM.
With “ACCUCUGCUGAGGAUAUCCUUGCGGAAGAAGGAGGAGAAGGCAGAACAUGAGGAUCACCCAUGUGGGAACAACG [Eternabot (Original) Solution 37] (Eterna round: R97, puzzle: Exclusion 6)”, the “apparent KD of MS2 coat protein” value reads like this: (input ligand: FMN 200 uM) 182 nM; (input ligand: none) 83.8 nM.
